The target in the assay is T1, Sec17p (S. cerevisiae (endogenous in yeast vacuoles)), P32602.
T1 chain: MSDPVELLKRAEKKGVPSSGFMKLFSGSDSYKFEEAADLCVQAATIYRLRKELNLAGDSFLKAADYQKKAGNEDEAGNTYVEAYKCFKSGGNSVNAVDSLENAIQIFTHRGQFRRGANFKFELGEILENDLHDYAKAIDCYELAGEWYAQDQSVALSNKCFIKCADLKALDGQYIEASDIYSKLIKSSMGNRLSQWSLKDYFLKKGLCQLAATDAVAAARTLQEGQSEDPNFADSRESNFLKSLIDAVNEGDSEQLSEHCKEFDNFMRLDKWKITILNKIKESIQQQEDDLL
The assay can be described thus: co-IP. As to conditions: remark: other sources report otherwise.

These results are taken from article PMC2132603.

A value given as a limit tells only on which side of the number the result lay.

B1: Vam3p, Q12241 1-283 (natural protein)
chain: MSFFDIEAQSSKGNSQQEPQFSTNQKTKELSNLIETFAEQSRVLEKECTKIGSKRDSKELRYKIETELIPNCTSVRDKIESNILIHQNGKLSADFKNLKTKYQSLQQSYNQRKSLFPLKTPISPGTSKERKDIHPRTEAVRQDPESSYISIKVNEQSPLLHNEGQHQLQLQEEQEQQQQGLSQEELDFQTIIHQERSQQIGRIHTAVQEVNAIFHQLGSLVKEQGEQVTTIDENISHLHDNMQNANKQLTRADQHQRDRNKCGKVTLIIIIVVCMVVLLAVLS
As for B1, the percent of Vam3p coprecipitated with Sec17p was above 50%.
